According to article PMC5875850, “Insights into DNA substrate selection by APOBEC3G from structural, biochemical, and functional studies”:

Experiments:
[1] = target: A3GCTD WT (A3G191-384-2K3A) (Homo sapiens, UniProt Q9HC16 191-384, L234K;C243A;F310K;C321A;C356A); assay: single-turnover deamination kinetics (kobs vs [E], hyperbolic fit); Kinetic Kd: 20 mM Tris pH 8.0, 1 mM DTT, 37 C, 1-50 uM enzyme, 40 nM DNA; SEC/complex: 50 mM Tris pH 7.0, 100 mM NaCl, 0.1 mM TCEP (stated for the Pot1-A3GCTD gel filtration); crystals 20 C, 100 mM HEPES pH 7, 200 mM LiCl, 20% PEG 6000; conditions: protein: recombinant; tags: His6-MBP tag removed by SARS-CoV Mpro; label: 5' 32P; single strand
A3GCTD WT (A3G191-384-2K3A), sequence (Q9HC16 191-384 L234K/C243A/F310K/C321A/C356A, one chain of several): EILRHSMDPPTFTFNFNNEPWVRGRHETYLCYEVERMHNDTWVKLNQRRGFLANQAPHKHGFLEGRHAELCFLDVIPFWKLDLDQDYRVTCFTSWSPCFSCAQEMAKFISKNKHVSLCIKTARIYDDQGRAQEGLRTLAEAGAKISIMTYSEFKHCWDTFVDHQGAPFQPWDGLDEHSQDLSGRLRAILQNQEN

[2] = target: Pot1-A3GCTD fusion (Pot1A3GCTD) (Schizosaccharomyces pombe (Pot1) / Homo …, UniProt O13988 1-185+Q9HC16:195-384, L234K;C243A;F310K;C321A;C356A;internal_change); assay: size exclusion chromatography; Kinetic Kd: 20 mM Tris pH 8.0, 1 mM DTT, 37 C, 1-50 uM enzyme, 40 nM DNA; SEC/complex: 50 mM Tris pH 7.0, 100 mM NaCl, 0.1 mM TCEP (stated for the Pot1-A3GCTD gel filtration); crystals 20 C, 100 mM HEPES pH 7, 200 mM LiCl, 20% PEG 6000; conditions: protein: recombinant; tags: His6-Staph nuclease tag removed by SARS-CoV Mpro; single strand
Pot1-A3GCTD fusion (Pot1A3GCTD), sequence (O13988 other isoform, or with tags, fused parts or gaps L234K;C243A;F310K;C321A;C356A;): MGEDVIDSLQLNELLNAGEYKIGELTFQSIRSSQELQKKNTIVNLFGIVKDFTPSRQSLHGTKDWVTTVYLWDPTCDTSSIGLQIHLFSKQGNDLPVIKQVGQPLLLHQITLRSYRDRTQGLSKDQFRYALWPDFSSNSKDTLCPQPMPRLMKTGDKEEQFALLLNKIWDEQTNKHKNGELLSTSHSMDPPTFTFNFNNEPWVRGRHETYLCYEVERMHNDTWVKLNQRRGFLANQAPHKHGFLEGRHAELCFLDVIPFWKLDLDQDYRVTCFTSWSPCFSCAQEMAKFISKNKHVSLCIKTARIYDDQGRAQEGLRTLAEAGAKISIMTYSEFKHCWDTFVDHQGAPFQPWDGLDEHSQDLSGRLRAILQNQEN

TAGAAAGGGAGACCCAAAGAGGAAAGGTGA (ssDNA) [CCCA 30-mer] gave a Kd [1] of 26 µM.

AGAAGACCCAAAGAAGAGGAAGCAGGTTAC (ssDNA) [30nt Pot1/A3G substrate (CCCA + GGTTAC)]: binds [2].
